Results reported in paper doi:10.1101/2024.11.23.624964 (bioRxiv, 2024).

Target: the molecule itself
Assay: thioflavin-T fluorescence

B1: TDP-43-low complexity domain (LCD) (aa: 274-414) (domain or fragment, UniProt Q13148 274-414, looked up)
chain: GRFGGNPGGFGNQGGFGNSRGGGAGLGNNQGSNMGGGMNFGAFSINPAMMAAAQAALQSSWGMMGMLASQQNQSGPSGNNQNQGNMQREPNQAFGSGNNSYSGSNSGAAIGWGSASNAGSGSGFNGGFGSSMDSKSSGWGM
  binding result: binds
